# Measurements published in publication PMC3485210.
# What was measured:
# [1] = test system: G44P (Bacillus subtilis bacteriophage SPP1); assay: EMSA; details: 1 mM EDTA, EMSA: 50 mM Tris-HCl pH 7.5, 50 mM NaCl, 50 ng/ul BSA, 5% glycerol, 0.2 nM DNA, 37 C, 15 min (20 min in Fig 4 legend), 6% PAGE
# [2] = biological target: gene 44 product (G44P) of Bacillus subtilis bacteriophage SPP1 (Bacillus subtilis bacteriophage SPP1); assay: SEC; FPLC gel filtration on Superdex 75 in buffer A (50 mM phosphate pH 7.5, 5% glycerol, 1 mM EDTA) with 1 M NaCl, 0.5 ml/min; 30 µg protein in 200 µl; mass from a standard curve of Kav versus log10 of molecular mass
Substance,K half [1] [nM],also measured
CGCAAGCGACAGGAACCTCGAGGAATTCAACCACCGCTCAACTCAACTGCAGTCTAGACTCGAGGTTCCTGTCGCTTGCG (double strand) [80-bp dsDNA],–,K half ([1]; complexes unstable in gel): 48 nM
CGCAAGCGACAGGAACCTCGAGAAGCTTCCGGTAGCAGCCTGAGCGGTGGTTGAATTCCTCGAGGTTCCTGTCGCTTGCG / CGCAAGCGACAGGAACCTCGAGGAATTCAACCACCGCTCAACTCAACTGCAGTCTAGACTCGAGGTTCCTGTCGCTTGCG / CGCAAGCGACAGGAACCTCGAGTCTAGACTGCAGTTGAGTCCTTGCTAGGACGGATCCCTCGAGGTTCCTGTCGCTTGCG / CGCAAGCGACAGGAACCTCGAGGGATCCGTCCTAGCAAGGGGCTGCTACCGGAAGCTTCTCGAGGTTCCTGTCGCTTGCG [HJ-J3],10,–
gene 44 product (G44P) of Bacillus subtilis bacteriophage SPP1 (enzyme),–,stoichiometry N [2]: 2
DL-D (D-loop),5,–
